# Results taken from patent US20180155451A1 (published 2018).
# Molecular target: T1, FcγRIa (human, UniProt P12314 16-292)
# T1 construct: extracellular domain; also called FcgRI; CD64
# Test: SPR; vs GpH7-A5/GpH7-B3/GpL16-k0=100
# T1 sequence (P12314 16-292): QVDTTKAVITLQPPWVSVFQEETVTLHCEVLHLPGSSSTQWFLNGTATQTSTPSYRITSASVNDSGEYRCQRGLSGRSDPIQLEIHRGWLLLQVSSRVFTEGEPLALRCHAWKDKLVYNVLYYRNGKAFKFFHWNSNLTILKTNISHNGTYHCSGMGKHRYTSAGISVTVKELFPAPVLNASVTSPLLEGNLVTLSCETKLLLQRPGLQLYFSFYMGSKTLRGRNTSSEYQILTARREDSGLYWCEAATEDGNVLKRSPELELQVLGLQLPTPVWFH
row,He/Con_1a,Binder
1,105 % of control,"GpH7-A5/GpH7-B3 variant K334_06M/GpL16-k0 (antibody, human IgG1, kappa, heterodimerized; also called He Ab K334_06M) heavy 1: not shown heavy 2: not shown light: DIVMTQSPLSLPVTPGEPASISCQASESLVHSNRNTYLHWYLQKPGQSPQLLIYKVSNRFSGVPDRFSGSGSGTDFTLKISRVEAEDVGVYYCSQNTHVPPTFGQGTKVEIERTVAAPSVFIFPPSDEQLKSGTASVVCLLNNFYPREAKVQWKVDNALQSGNSQESVTEQDSKDSTYSLSSTLTLSKADYEKHKVYACEVTHQGLSSPVTKSFNRGEC"
2,106 % of control,"GpH7-A5/GpH7-B3 variant K334_20W/GpL16-k0 (antibody, human IgG1, kappa, heterodimerized; also called He Ab K334_20W) heavy 1: not shown heavy 2: not shown light: DIVMTQSPLSLPVTPGEPASISCQASESLVHSNRNTYLHWYLQKPGQSPQLLIYKVSNRFSGVPDRFSGSGSGTDFTLKISRVEAEDVGVYYCSQNTHVPPTFGQGTKVEIERTVAAPSVFIFPPSDEQLKSGTASVVCLLNNFYPREAKVQWKVDNALQSGNSQESVTEQDSKDSTYSLSSTLTLSKADYEKHKVYACEVTHQGLSSPVTKSFNRGEC"
3,108 % of control,"GpH7-A5/GpH7-B3 variant I336_10E/GpL16-k0 (antibody, human IgG1, kappa, heterodimerized; also called He Ab I336_10E) heavy 1: not shown heavy 2: not shown light: DIVMTQSPLSLPVTPGEPASISCQASESLVHSNRNTYLHWYLQKPGQSPQLLIYKVSNRFSGVPDRFSGSGSGTDFTLKISRVEAEDVGVYYCSQNTHVPPTFGQGTKVEIERTVAAPSVFIFPPSDEQLKSGTASVVCLLNNFYPREAKVQWKVDNALQSGNSQESVTEQDSKDSTYSLSSTLTLSKADYEKHKVYACEVTHQGLSSPVTKSFNRGEC"
4,105 % of control,"GpH7-A5/GpH7-B3 variant K326_18N/GpL16-k0 (antibody, human IgG1, kappa, heterodimerized; also called He Ab K326_18N) heavy 1: not shown heavy 2: not shown light: DIVMTQSPLSLPVTPGEPASISCQASESLVHSNRNTYLHWYLQKPGQSPQLLIYKVSNRFSGVPDRFSGSGSGTDFTLKISRVEAEDVGVYYCSQNTHVPPTFGQGTKVEIERTVAAPSVFIFPPSDEQLKSGTASVVCLLNNFYPREAKVQWKVDNALQSGNSQESVTEQDSKDSTYSLSSTLTLSKADYEKHKVYACEVTHQGLSSPVTKSFNRGEC"
5,104 % of control,"GpH7-A5/GpH7-B3 variant L234_06M/GpL16-k0 (antibody, human IgG1, kappa, heterodimerized; also called He Ab L234_06M) heavy 1: not shown heavy 2: not shown light: DIVMTQSPLSLPVTPGEPASISCQASESLVHSNRNTYLHWYLQKPGQSPQLLIYKVSNRFSGVPDRFSGSGSGTDFTLKISRVEAEDVGVYYCSQNTHVPPTFGQGTKVEIERTVAAPSVFIFPPSDEQLKSGTASVVCLLNNFYPREAKVQWKVDNALQSGNSQESVTEQDSKDSTYSLSSTLTLSKADYEKHKVYACEVTHQGLSSPVTKSFNRGEC"
6,104 % of control,"GpH7-A5/GpH7-B3 variant K326_14T/GpL16-k0 (antibody, human IgG1, kappa, heterodimerized; also called He Ab K326_14T) heavy 1: not shown heavy 2: not shown light: DIVMTQSPLSLPVTPGEPASISCQASESLVHSNRNTYLHWYLQKPGQSPQLLIYKVSNRFSGVPDRFSGSGSGTDFTLKISRVEAEDVGVYYCSQNTHVPPTFGQGTKVEIERTVAAPSVFIFPPSDEQLKSGTASVVCLLNNFYPREAKVQWKVDNALQSGNSQESVTEQDSKDSTYSLSSTLTLSKADYEKHKVYACEVTHQGLSSPVTKSFNRGEC"

# The remaining lines, values behind:
row,Binder,He/Con_1a
1,"GpH7-A5/GpH7-B3 variant I336_06M/GpL16-k0 (antibody, human IgG1, kappa, heterodimerized; also called He Ab I336_06M) heavy 1: not shown heavy 2: not shown light: DIVMTQSPLSLPVTPGEPASISCQASESLVHSNRNTYLHWYLQKPGQSPQLLIYKVSNRFSGVPDRFSGSGSGTDFTLKISRVEAEDVGVYYCSQNTHVPPTFGQGTKVEIERTVAAPSVFIFPPSDEQLKSGTASVVCLLNNFYPREAKVQWKVDNALQSGNSQESVTEQDSKDSTYSLSSTLTLSKADYEKHKVYACEVTHQGLSSPVTKSFNRGEC",108 % of control
2,"GpH7-A5/GpH7-B3 variant L234_03V/GpL16-k0 (antibody, human IgG1, kappa, heterodimerized; also called He Ab L234_03V) heavy 1: not shown heavy 2: not shown light: DIVMTQSPLSLPVTPGEPASISCQASESLVHSNRNTYLHWYLQKPGQSPQLLIYKVSNRFSGVPDRFSGSGSGTDFTLKISRVEAEDVGVYYCSQNTHVPPTFGQGTKVEIERTVAAPSVFIFPPSDEQLKSGTASVVCLLNNFYPREAKVQWKVDNALQSGNSQESVTEQDSKDSTYSLSSTLTLSKADYEKHKVYACEVTHQGLSSPVTKSFNRGEC",104 % of control
3,"GpH7-A5/GpH7-B3 variant L234_07I/GpL16-k0 (antibody, human IgG1, kappa, heterodimerized; also called He Ab L234_07I) heavy 1: not shown heavy 2: not shown light: DIVMTQSPLSLPVTPGEPASISCQASESLVHSNRNTYLHWYLQKPGQSPQLLIYKVSNRFSGVPDRFSGSGSGTDFTLKISRVEAEDVGVYYCSQNTHVPPTFGQGTKVEIERTVAAPSVFIFPPSDEQLKSGTASVVCLLNNFYPREAKVQWKVDNALQSGNSQESVTEQDSKDSTYSLSSTLTLSKADYEKHKVYACEVTHQGLSSPVTKSFNRGEC",103 % of control
4,"GpH7-A5/GpH7-B3 variant K334_12R/GpL16-k0 (antibody, human IgG1, kappa, heterodimerized; also called He Ab K334_12R) heavy 1: not shown heavy 2: not shown light: DIVMTQSPLSLPVTPGEPASISCQASESLVHSNRNTYLHWYLQKPGQSPQLLIYKVSNRFSGVPDRFSGSGSGTDFTLKISRVEAEDVGVYYCSQNTHVPPTFGQGTKVEIERTVAAPSVFIFPPSDEQLKSGTASVVCLLNNFYPREAKVQWKVDNALQSGNSQESVTEQDSKDSTYSLSSTLTLSKADYEKHKVYACEVTHQGLSSPVTKSFNRGEC",104 % of control
5,"GpH7-A5/GpH7-B3 variant L234_04F/GpL16-k0 (antibody, human IgG1, kappa, heterodimerized; also called He Ab L234_04F) heavy 1: not shown heavy 2: not shown light: DIVMTQSPLSLPVTPGEPASISCQASESLVHSNRNTYLHWYLQKPGQSPQLLIYKVSNRFSGVPDRFSGSGSGTDFTLKISRVEAEDVGVYYCSQNTHVPPTFGQGTKVEIERTVAAPSVFIFPPSDEQLKSGTASVVCLLNNFYPREAKVQWKVDNALQSGNSQESVTEQDSKDSTYSLSSTLTLSKADYEKHKVYACEVTHQGLSSPVTKSFNRGEC",101 % of control
6,"GpH7-A5/GpH7-B3 variant K326_12R/GpL16-k0 (antibody, human IgG1, kappa, heterodimerized; also called He Ab K326_12R) heavy 1: not shown heavy 2: not shown light: DIVMTQSPLSLPVTPGEPASISCQASESLVHSNRNTYLHWYLQKPGQSPQLLIYKVSNRFSGVPDRFSGSGSGTDFTLKISRVEAEDVGVYYCSQNTHVPPTFGQGTKVEIERTVAAPSVFIFPPSDEQLKSGTASVVCLLNNFYPREAKVQWKVDNALQSGNSQESVTEQDSKDSTYSLSSTLTLSKADYEKHKVYACEVTHQGLSSPVTKSFNRGEC",100 % of control
7,"GpH7-A5/GpH7-B3 variant K326_16H/GpL16-k0 (antibody, human IgG1, kappa, heterodimerized; also called He Ab K326_16H) heavy 1: not shown heavy 2: not shown light: DIVMTQSPLSLPVTPGEPASISCQASESLVHSNRNTYLHWYLQKPGQSPQLLIYKVSNRFSGVPDRFSGSGSGTDFTLKISRVEAEDVGVYYCSQNTHVPPTFGQGTKVEIERTVAAPSVFIFPPSDEQLKSGTASVVCLLNNFYPREAKVQWKVDNALQSGNSQESVTEQDSKDSTYSLSSTLTLSKADYEKHKVYACEVTHQGLSSPVTKSFNRGEC",103 % of control
8,"GpH7-A5/GpH7-B3 variant K326_15Y/GpL16-k0 (antibody, human IgG1, kappa, heterodimerized; also called He Ab K326_15Y) heavy 1: not shown heavy 2: not shown light: DIVMTQSPLSLPVTPGEPASISCQASESLVHSNRNTYLHWYLQKPGQSPQLLIYKVSNRFSGVPDRFSGSGSGTDFTLKISRVEAEDVGVYYCSQNTHVPPTFGQGTKVEIERTVAAPSVFIFPPSDEQLKSGTASVVCLLNNFYPREAKVQWKVDNALQSGNSQESVTEQDSKDSTYSLSSTLTLSKADYEKHKVYACEVTHQGLSSPVTKSFNRGEC",106 % of control
9,"GpH7-A5/GpH7-B3 variant I336_18N/GpL16-k0 (antibody, human IgG1, kappa, heterodimerized; also called He Ab I336_18N) heavy 1: not shown heavy 2: not shown light: DIVMTQSPLSLPVTPGEPASISCQASESLVHSNRNTYLHWYLQKPGQSPQLLIYKVSNRFSGVPDRFSGSGSGTDFTLKISRVEAEDVGVYYCSQNTHVPPTFGQGTKVEIERTVAAPSVFIFPPSDEQLKSGTASVVCLLNNFYPREAKVQWKVDNALQSGNSQESVTEQDSKDSTYSLSSTLTLSKADYEKHKVYACEVTHQGLSSPVTKSFNRGEC",108 % of control
10,"GpH7-A5/GpH7-B3 variant K334_10E/GpL16-k0 (antibody, human IgG1, kappa, heterodimerized; also called He Ab K334_10E) heavy 1: not shown heavy 2: not shown light: DIVMTQSPLSLPVTPGEPASISCQASESLVHSNRNTYLHWYLQKPGQSPQLLIYKVSNRFSGVPDRFSGSGSGTDFTLKISRVEAEDVGVYYCSQNTHVPPTFGQGTKVEIERTVAAPSVFIFPPSDEQLKSGTASVVCLLNNFYPREAKVQWKVDNALQSGNSQESVTEQDSKDSTYSLSSTLTLSKADYEKHKVYACEVTHQGLSSPVTKSFNRGEC",110 % of control
